Measured values published in the supplement of paper PMC11136658.

System: peptide library, one residue held at a place counted from the Y acceptor
Assay: relative phosphorylation of the sub-library (ratio to the mean residue at this position); higher = residue favoured
Outline: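 In 384-well plates, purified recombinant kinases were incubated for 90 min with 50 μM ATP containing γ-32P-ATP and biotinylated Tyr-centred peptide libraries, each mixture fixing one residue at a single position between −5 and +5. After capture on streptavidin membranes and rinsing, peptides were quantified by phosphorimaging with ImageQuant. Per-position intensities were scaled to the sum of the 18 (Ser/Thr-free library: 16) randomized residues, then multiplied by that number.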

TNK1, construct: aa106-390, human, sequence (Q13470 106-390, looked up): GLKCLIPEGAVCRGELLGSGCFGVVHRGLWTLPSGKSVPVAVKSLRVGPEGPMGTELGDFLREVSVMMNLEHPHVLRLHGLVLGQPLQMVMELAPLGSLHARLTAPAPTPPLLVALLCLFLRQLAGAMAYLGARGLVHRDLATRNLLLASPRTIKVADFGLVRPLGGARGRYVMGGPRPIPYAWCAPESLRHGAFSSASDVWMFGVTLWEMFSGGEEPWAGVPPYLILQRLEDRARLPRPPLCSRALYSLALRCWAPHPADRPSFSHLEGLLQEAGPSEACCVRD

SRC, construct: Full length, human (from UniProt P12931)
relative phosphorylation
Conditions	at +1	at +2	at +3	at +4	at +5	at -1	at -2	at -3	at -4	at -5
A fixed	1.71	1.04	0.531	0.882	1.03	0.537	1.09	0.87	1.12	1.01
D fixed	0.651	0.589	0.472	0.783	0.787	0.691	1.57	1.93	1.48	1.36
E fixed	1.43	1.36	0.454	0.876	0.704	0.984	1.82	2.66	1.68	1.23
F fixed	0.696	1.21	3.63	1.19	1.24	0.688	0.649	0.959	1.2	1.03
G fixed	3.59	0.728	0.679	1.29	1.06	0.492	1.2	0.937	1.15	1.16
H fixed	0.667	0.556	0.874	0.983	0.891	0.504	0.917	0.842	0.875	0.871
I fixed	0.83	1.39	2.12	0.89	0.817	4.34	0.76	0.663	0.902	0.826
K fixed	0.229	0.535	0.369	0.982	1.06	0.229	0.522	0.462	0.566	0.758
L fixed	0.605	0.987	1.36	0.876	1.05	1.6	0.878	0.694	0.954	0.899
M fixed	1.09	1.09	0.913	1.19	0.87	0.764	0.657	0.765	0.91	0.901
N fixed	0.456	0.648	0.407	0.737	0.725	0.294	1.17	1.18	0.793	1.09
P fixed	0.274	0.7	0.453	0.931	1.49	1.11	1.26	0.814	1.17	1.21
Q fixed	0.764	0.802	0.416	1.08	0.851	0.378	1.11	1.01	0.941	0.976
R fixed	0.297	0.685	0.637	1.14	1.24	0.213	0.598	0.541	0.673	0.808
S fixed	1.04	1.67	0.626	0.932	1.15	0.385	1.18	0.971	0.797	0.955
T fixed	0.976	1.5	0.709	0.94	0.926	1.28	0.896	0.901	0.692	0.848
V fixed	1.14	1.39	1.5	0.919	0.947	2.86	0.834	0.664	0.784	0.82
W fixed	1.55	1.13	1.84	1.39	1.16	0.651	0.886	1.14	1.31	1.27
pThr fixed	1.52	1.76	0.528	0.686	0.645	2.28	1.83	1.46	1.3	1.37
pTyr fixed	3.88	2.03	0.798	1.32	0.829	1.27	1.55	1.66	1.97	1.46

TNK1, construct: aa106-390, human (from UniProt Q13470)
relative phosphorylation
Conditions	at +1	at +2	at +3	at +4	at +5	at -1	at -2	at -3	at -4	at -5
A fixed	1.56	0.82	0.743	0.902	0.977	0.86	1.01	0.962	1.07	1.08
D fixed	0.25	0.328	0.335	0.714	0.594	0.276	0.529	0.641	0.78	0.845
E fixed	0.386	0.471	0.268	0.706	0.558	0.277	0.576	0.606	0.8	0.737
F fixed	1.09	1.28	1.87	1.25	1.1	1.01	0.762	0.95	0.886	0.885
G fixed	0.859	0.527	0.82	0.965	1.11	0.924	1.39	1.26	1.32	1.24
H fixed	1.12	0.884	1.24	1.1	0.947	1.64	1.14	1.09	1.01	1.1
I fixed	1.05	1.43	1.27	0.73	0.857	0.809	0.627	0.571	0.807	0.849
K fixed	1.2	1.09	0.728	1.25	1.23	1.59	1.41	1.43	1.29	1.37
L fixed	1	1.23	1.21	0.892	0.997	0.825	0.678	0.784	0.963	0.904
M fixed	1.05	1.36	1.16	1.11	1.13	0.927	0.681	0.84	0.941	0.934
N fixed	0.602	0.876	0.627	0.959	0.978	0.898	1.22	1.1	0.936	1.03
P fixed	0.544	0.843	0.976	1.15	1.53	1.18	1.36	1.33	1.44	1.26
Q fixed	1.08	0.825	0.573	1.1	0.864	1.09	1.07	0.982	1.02	1.04
R fixed	1.45	1.27	0.987	1.28	1.17	2.56	1.8	1.6	1.44	1.26
S fixed	0.936	0.787	0.661	0.901	0.982	0.779	1.23	1.15	0.863	0.999
T fixed	1.03	1.07	0.665	0.891	1.01	0.895	1.01	1.06	0.765	0.912
V fixed	1.18	1.4	1.19	0.846	0.878	0.733	0.748	0.702	0.828	0.832
W fixed	1.6	1.51	2.69	1.26	1.1	0.723	0.749	0.947	0.845	0.718
pThr fixed	0.344	0.38	0.211	0.367	0.429	0.291	0.492	0.539	0.593	0.738
pTyr fixed	0.725	0.413	0.326	0.454	0.485	0.538	0.594	0.733	0.791	0.812
